According to PMC10478762:

Target: NADPH-dependent imine reductase from Ajellomyces dermatitidis (Ajellomyces dermatitidis)
Experiment: crystal structure; three crystal forms, sitting drop, 298 K, protein at 40 mg/ml in 50 mM Tris-HCl pH 7.5, 300 mM NaCl; data set 1 P3(1)21 with NADPH4 (one dimer in the asymmetric unit), data set 2 C2(1) with NADP+ (nine molecules, four and a half dimers), data set 3 P3(1)21 with NADP+ and 2,2-difluoroacetophenone (half-dimer, partner by crystal symmetry)

- stoichiometry N: 2
Substance: NADPH-dependent imine reductase from Ajellomyces dermatitidis (enzyme)
